This is an account of results in EP4552657A1, “RADIOPHARMACEUTICAL COMPLEXES AND COMBINATIONS” (priority 2023, dated 2025).

Assay [1] concerns the target human recombinant DLL3 antigen (human) (UniProt Q9NYJ7). Description: IRF assay on recombinant human DLL3 coated M-270-carboxy Dynabeads, 10 µg beads.
Assay [2] has as its target CEACAM5 coated on M270-carboxy Dynabeads (UniProt P06731). Description: IRF assay on CEACAM5-coated M270-carboxy Dynabeads, 33 µg beads.
For assay [3] the target is unchanged. Description: IRF assay on CEACAM5-coated M270-carboxy Dynabeads, 100 µg beads.
The target is the same in assay [4]. The experiment in a line: IRF assay on CEACAM5-coated M270-carboxy Dynabeads, 333 µg beads.

Sequence of CEACAM5 coated on M270-carboxy Dynabeads (P06731 35-685 limits assumed): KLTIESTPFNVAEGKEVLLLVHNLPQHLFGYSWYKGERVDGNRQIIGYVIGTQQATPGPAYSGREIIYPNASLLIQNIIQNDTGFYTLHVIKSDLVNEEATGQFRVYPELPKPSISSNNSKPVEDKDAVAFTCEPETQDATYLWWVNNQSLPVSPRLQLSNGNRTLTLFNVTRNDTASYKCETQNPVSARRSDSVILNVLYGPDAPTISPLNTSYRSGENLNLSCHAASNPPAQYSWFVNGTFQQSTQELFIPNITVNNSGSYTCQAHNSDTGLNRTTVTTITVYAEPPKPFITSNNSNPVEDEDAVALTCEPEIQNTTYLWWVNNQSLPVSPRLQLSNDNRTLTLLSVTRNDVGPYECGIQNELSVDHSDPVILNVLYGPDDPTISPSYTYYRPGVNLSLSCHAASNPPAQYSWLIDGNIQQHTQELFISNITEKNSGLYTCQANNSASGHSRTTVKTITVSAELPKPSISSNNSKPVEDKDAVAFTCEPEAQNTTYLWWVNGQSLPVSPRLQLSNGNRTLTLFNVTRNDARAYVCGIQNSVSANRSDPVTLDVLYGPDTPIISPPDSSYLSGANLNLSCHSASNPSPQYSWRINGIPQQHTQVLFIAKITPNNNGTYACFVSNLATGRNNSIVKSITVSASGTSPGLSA
Sequence of human recombinant DLL3 antigen (human) (Q9NYJ7 27-492 limits assumed): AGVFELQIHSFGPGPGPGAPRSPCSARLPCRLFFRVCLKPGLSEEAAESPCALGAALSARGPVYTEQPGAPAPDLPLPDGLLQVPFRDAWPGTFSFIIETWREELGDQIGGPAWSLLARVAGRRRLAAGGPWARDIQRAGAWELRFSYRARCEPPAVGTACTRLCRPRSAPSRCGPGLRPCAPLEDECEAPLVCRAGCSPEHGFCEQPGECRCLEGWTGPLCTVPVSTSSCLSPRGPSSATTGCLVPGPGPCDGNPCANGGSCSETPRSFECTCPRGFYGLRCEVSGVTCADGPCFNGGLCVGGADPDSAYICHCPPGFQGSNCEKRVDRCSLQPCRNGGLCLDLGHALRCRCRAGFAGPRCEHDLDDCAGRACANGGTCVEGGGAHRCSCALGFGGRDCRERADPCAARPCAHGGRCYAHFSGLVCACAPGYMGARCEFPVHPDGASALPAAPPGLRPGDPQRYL

With “Ac-225-macropa-Rovalpituzumab (antibody)”, the maximum binding (IRF) in assay [1] was 86%.

Ac-225-macropa-Labetuzumab (antibody): the IRF (immunoreactive fraction) amounted to 43% in assay [2], 88% in assay [3] and 97% in assay [4].
